Source: patent US20210386788A1, “ER TUNABLE PROTEIN REGULATION” (Obsidian Therapeutics, Inc., priority 2018, published 2021)

How the values were obtained:
Type in all cases: cell-based, human
[1] = system: primary T cells; test: CD19 CAR expression on lentivirus transduced primary T cells (flow cytometry with CD19-Fc); settings: for CAR expression, % positive: day 7 of T cell expansion
Method: (§1) Primary T cells were activated with CD3/CD28 Dynabeads at 3:1 Bead: Cell ratio overnight, then transduced with OT-001792 lentivirus. On day 7 of the T cell expansion, CAR expression was measured by flow cytometry with CD19-Fc on cells treated overnight in the presence (34% positive) or absence (0.6% positive) of 1 μM Bazedoxifene. After the T cells had expanded for 10 days, they were mixed with CD19-expressing Nalm6 target cells at ratios of 10:1 and 2.5:1 total T cells:Nalm6 cells and cultured for 3 days.
Primary T cells were activated with CD3/CD28 Dynabeads at 3:1 Bead:Cell ratio overnight, then transduced with lentiviruses derived from the indicated constructs. On day 7 or day 9 (as indicated) of the T cell expansion, CAR expression was measured by flow cytometry with CD19-Fc on cells incubated for 24 hours with 1 μM Bazedoxifene or 1 μM Raloxifene or DMSO. […] At day 9 the basal percentage of CAR positive cells for the same constructs was even lower at approximately 20% i.e. in the absence of ligand and about 32-45% in the presence of either ligand. […] This was true at both day 7 and day 9.
Human donor T cells were thawed and activated overnight in the presence of CD3/CD28 Dynabeads at 3:1 bead:cell ratio, then transduced with lentivirus related to OT-002158, or OT-001786. Cells were expanded over the course of 10 days, with fresh media added to maintain cells at around 0.5×10^6 cells/mL. On day 9, an aliquot of cells was removed, and treated with 1 μM Bazedoxifene overnight or DMSO vehicle control, then stained with 10 μg/mL CD19-Fc. Histograms showing CAR expression from a Live Singlet cell gate were plotted.
Human donor T cells were thawed and activated overnight in the presence of CD3/CD28 Dynabeads at 3:1 bead:cell ratio, then transduced with lentivirus from the constructs. Cells were expanded over the course of 10 days, and fresh media was added to maintain cells around 0.5×10^6 cells/ml. On day 9, an aliquot of cells were removed, treated with 1 μM Bazedoxifene overnight, then stained with 10 μg/mL CD19-Fc. Histograms showing CAR expression from a Live Singlet cell gate were plotted. The data are shown in Table 19 and Table 20 where data are presented as % CAR positive cells, where SR indicates stabilization ration.
T cells were transduced with OT-00179, OT-002158, OT-001407 or empty vector and expanded as described herein, frozen on day 10. To confirm the expression and function of this large scale expansion for in vivo use, cells were thawed and incubated overnight in the presence of CD3/28 beads (1:1 bead:cell ratio) and with or without 1 μM Bazedoxifene. FACS staining with 1 μg/mL CD19-Fc was performed to measure the surface expression of CD19-CAR. The data are provided in Table 21 as the percentage CAR positive cells.

[2] = system: Nalm6 target cells; test: Nalm6 target cell killing by CAR T cells (Incucyte)
Method: as §1
(§2) To measure Interferon gamma production, T cells transduced with the constructs OT-00179, OT-002158, OT-001407 or empty vector were thawed and co-cultured with Nalm6 target cells (stably expressing NucRed®) at different ratios of transduced T cells (herein referred to as the Effector) and Nalm 6 cells (herein referred to as the Target). Target cell viability was determined by measuring cellular fluorescence over time using the Incucyte instrument. Data presented in Table 22 are expressed as Nalm6 cell area at representative time points (0, 24, and 42 hour (hr)). The lower the numerical value of the Nalm6 area, the higher the cytotoxicity effected by the Effector cells.

[3] = system: Nalm6 target cells; test: Interferon gamma in T cell/Nalm6 co-culture supernatants (MSD); settings: co-culture supernatant at 42 hours
Method: as §2
Cell culture supernatants were collected from the T cell/Nalm6 cytotoxicity assay co-cultures at 42 hours. Interferon gamma was measured by MSD and is described in Table 23.

B1: OT-001792: CD8α leader; Linker (RS); ER (L384M, M421G, G521R, Y537S); Furin cleavage site; CD19 CAR; SEQ ID NO. 406 (protein)
chain: MALPVTALLLPLALLLHAARPRSSLALSLTADQMVSALLDAEPPILYSEYDPTRPFSEASMMGLLTNLADRELVHMINWAKRVPGFVDLTLHDQVHLLECAWMEILMIGLVWRSMEHPGKLLFAPNLLLDRNQGKCVEGGVEIFDMLLATSSRFRMMNLQGEEFVCLKSIILLNSGVYTFLSSTLKSLEEKDHIHRVLDKITDTLIHLMAKAGLTLQQQHQRLAQLLLILSHIRHMSNKRMEHLYSMKCKNVVPLSDLLLEMLDAHRLGTGAEDPRPSRKRRSLGDVGEIVMTQSPATLSLSPGERATLSCRASQDISKYLNWYQQKPGQAPRLLIYHTSRLHSGIPARFSGSGSGTDYTLTISSLQPEDFAVYFCQQGNTLPYTFGQGTKLEIKGGGGSGGGGSGGGGSQVQLQESGPGLVKPSETLSLTCTVSGVSLPDYGVSWIRQPPGKGLEWIGVIWGSETTYYSSSLKSRVTISKDNSKNQVSLKLSSVTAADTAVYYCAKHYYYGGSYAMDYWGQGTLVTVSSTTTPAPRPPTPAPTIASQPLSLRPEACRPAAGGAVHTRGLDFACDIYIWAPLAGTCGVLLLSLVITLYCKRGRKKLLYIFKQPFMRPVQTTQEEDGCSCRFPEEEEGGCELRVKFSRSADAPAYKQGQNQLYNELNLGRREEYDVLDKRRGRDPEMGGKPRRKNPQEGLYNELQKDKMAEAYSEIGMKGERRRGKGHDGLYQGLSTATKDTYDALHMQALPPR
ligand dependent regulation of CAR expression (in words) ([1]; 1 μM Bazedoxifene or Raloxifene versus DMSO, day 7 or day 9): did not show any ligand dependent regulation of CAR expression | % CAR positive cells, Bazedoxifene ([1]; Table 21, thawed cells, overnight with CD3/28 beads, 1 μM Bazedoxifene, 1 μg/mL CD19-Fc): 39.6% | % CAR positive cells, Vehicle ([1]; Table 21, thawed cells, overnight with CD3/28 beads, without Bazedoxifene, 1 μg/mL CD19-Fc): 0.39% | CAR expression, % positive ([1]; overnight in the absence of Bazedoxifene): 0.6% | CAR expression, % positive ([1]; overnight in the presence of 1 μM Bazedoxifene): 34% | Nalm 6 area, total target area ([2]; 0 hr, Effector:Target 0.3:1, + 1 μM Bazedoxifene): 57617.98 | Nalm 6 area, total target area ([2]; 0 hr, Effector:Target 0.3:1, no ligand): 71711.59 | Nalm 6 area, total target area ([2]; 0 hr, Effector:Target 1:1, + 1 μM Bazedoxifene): 67768.82 | Nalm 6 area, total target area ([2]; 0 hr, Effector:Target 1:1, no ligand): 62673.31 | Nalm 6 area, total target area ([2]; 0 hr, Effector:Target 3:1, + 1 μM Bazedoxifene): 54788.54 | Nalm 6 area, total target area ([2]; 0 hr, Effector:Target 3:1, no ligand): 60708.63 | Nalm 6 area, total target area ([2]; 0 hr, Effector:Target 10:1, + 1 μM Bazedoxifene): 55572.92 | Nalm 6 area, total target area ([2]; 0 hr, Effector:Target 10:1, no ligand): 57172.20 | Nalm 6 area, total target area ([2]; 24 hr, Effector:Target 0.3:1, + 1 μM Bazedoxifene): 94217.60 | Nalm 6 area, total target area ([2]; 24 hr, Effector:Target 0.3:1, no ligand): 123175.80 | Nalm 6 area, total target area ([2]; 24 hr, Effector:Target 1:1, + 1 μM Bazedoxifene): 103535.70 | Nalm 6 area, total target area ([2]; 24 hr, Effector:Target 1:1, no ligand): 104433.20 | Nalm 6 area, total target area ([2]; 24 hr, Effector:Target 3:1, + 1 μM Bazedoxifene): 67794.87 | Nalm 6 area, total target area ([2]; 24 hr, Effector:Target 3:1, no ligand): 105474.34 | Nalm 6 area, total target area ([2]; 24 hr, Effector:Target 10:1, + 1 μM Bazedoxifene): 40606.37 | Nalm 6 area, total target area ([2]; 24 hr, Effector:Target 10:1, no ligand): 93991.37 | Nalm 6 area, total target area ([2]; 42 hr, Effector:Target 0.3:1, + 1 μM Bazedoxifene): 143903.95 | Nalm 6 area, total target area ([2]; 42 hr, Effector:Target 0.3:1, no ligand): 197082.75 | Nalm 6 area, total target area ([2]; 42 hr, Effector:Target 1:1, + 1 μM Bazedoxifene): 133539.50 | Nalm 6 area, total target area ([2]; 42 hr, Effector:Target 1:1, no ligand): 171919.20 | Nalm 6 area, total target area ([2]; 42 hr, Effector:Target 3:1, + 1 μM Bazedoxifene): 58548.97 | Nalm 6 area, total target area ([2]; 42 hr, Effector:Target 3:1, no ligand): 180465.55 | Nalm 6 area, total target area ([2]; 42 hr, Effector:Target 10:1, + 1 μM Bazedoxifene): 25302.71 | Nalm 6 area, total target area ([2]; 42 hr, Effector:Target 10:1, no ligand): 156073.75 | CD19-CAR mediated target cell killing ([2]; T cells:Nalm6 10:1 and 2.5:1, 3 days, with or without 1 μM Bazedoxifene): observed specifically in the presence of 1 μM Bazedoxifene | IFN gamma levels, 1 μM Bazedoxifene ([3]; 1 μM Bazedoxifene): 7079.60 pg/mL | IFN gamma levels, Vehicle ([3]; vehicle): 91.09 pg/mL
